Assay results as given in the supplement of paper PMC10724198.
± gives the standard deviation of the averaged measurements.

Test system: Saccharomyces cerevisiae
Assay: protein stability index of tFT-peptide fusion (C-terminal peptide) (PSI (0-1 scale)); higher = more stable (slower turnover)
Details: genetic background: wild type; temperature: 30 C
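Also: PSI is a weighted mean of sequencing reads over stability bins, variants kept only with over 10 reads, mCherry proximal and sfGFP distal, peptide attached via GGGS linker.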

Row | Sequence | protein stability index
1 | PPSPPTPPPPLP | 0.66 ± 0.0085
2 | PPSPRPPRPLFA | 0.664 ± 0.021
3 | PPSPYNPPSTAN | 0.722 ± 0.0091
4 | PPSRDRATSPSE | 0.656 ± 0.023
5 | PPSRNPPDLDTQ | 0.682 ± 0.14
6 | PPSSFHFVVPHP | 0.684 ± 0.054
7 | PPSTFDPSTLRP | 0.665 ± 0.041
8 | PPSTSPTLTSAR | 0.722 ± 0.016
9 | PPSVLPLPPSLP | 0.732 ± 0.043
10 | PPSVPPPLPHPV | 0.74 ± 0.037
11 | PPTFPPPLPLPP | 0.692 ± 0.031
12 | PPTGHAPSRALT | 0.676 ± 0.091
13 | PPTPAPLSPPYV | 0.712 ± 0.026
14 | PPTSLRFRPPYC | 0.682 ± 0.046
15 | PPVAPTPFPPPS | 0.684 ± 0.018
16 | PPVFYAPLVTER | 0.7 ± 0.035
17 | PPVPPPAPPHPR | 0.753 ± 0.14
18 | PPVPPPLPYLPP | 0.624 ± 0.031
19 | PPVPRSPPPRRS | 0.719 ± 0.12
20 | PPVPSLFPPPPH | 0.674 ± 0.038
21 | PPVRPRPDPACR | 0.727 ± 0.031
22 | PPVSPPLPPPPH | 0.704 ± 0.03
23 | PPVWSSLPPPPF | 0.721 ± 0.018
24 | PQLNRKAATPQN | 0.641 ± 0.069
25 | PQPLESTVDHRL | 0.7192 ± 0.0062
26 | PRAANRWASKAL | 0.6941 ± 0.0069

Row | Sequence | protein stability index
27 | PRETRPDEAQRG | 0.726 ± 0.069
28 | PREYGSYHNYHS | 0.592 ± 0.047
29 | PRFPPLPAHRVR | 0.633 ± 0.047
30 | PRFPQPSTLLPP | 0.698 ± 0.021
31 | PRHPRLPAPPAP | 0.666 ± 0.034
32 | PRHSPPPPLPAP | 0.699 ± 0.014
33 | PRHVISQCFSRT | 0.6641 ± 0.005
34 | PRIPPPIPPDTP | 0.695 ± 0.045
35 | PRKHSSRAINPI | 0.721 ± 0.06
36 | PRLCFPPPPAPA | 0.688 ± 0.083
37 | PRPPALPFPLLA | 0.5329 ± 0.0036
38 | PRPPHPPPASPP | 0.58 ± 0.031
39 | PRPPPPRPRSSP | 0.667 ± 0.066
40 | PRPPSPPPPSPA | 0.808 ± 0.072
41 | PRRLCLLPLLSP | 0.662 ± 0.022
42 | PRRPCDPLRAPH | 0.737 ± 0.15
43 | PRRPPPPRARFP | 0.723 ± 0.026
44 | PRSAMTRHSSCR | 0.65 ± 0.017
45 | PRSAPPPPNSLF | 0.656 ± 0.035
46 | PRSPLSIFPSSL | 0.692 ± 0.13
47 | PRSPSPPRSPSP | 0.66 ± 0.12
48 | PRSSPEPTCQDP | 0.647 ± 0.099
49 | PRSTATSPPAPP | 0.6678 ± 0.0019
50 | PRTDIGGAGLGE | 0.6961 ± 0.0019
51 | PRTLRHSGRLAE | 0.705 ± 0.016
52 | PRTSQVNRFFRV | 0.721 ± 0.13

Row | Sequence | protein stability index
53 | PRYCVQQNPQDR | 0.722 ± 0.044
54 | PSALPPFQPGPL | 0.747 ± 0.047
55 | PSAPFPFPALGA | 0.61 ± 0.028
56 | PSAPLVPNLLAA | 0.662 ± 0.016
57 | PSAPPSLPFLPY | 0.692 ± 0.032
58 | PSDYDCHRKTFS | 0.738 ± 0.01
59 | PSFLPLPLPSSF | 0.718 ± 0.028
60 | PSFPHLPDFFIP | 0.6779 ± 0.0019
61 | PSFPSSPSPVTL | 0.69 ± 0.035
62 | PSGDYVVLTTVS | 0.6901 ± 0.0038
63 | PSGFLFPLSPPA | 0.698 ± 0.01
64 | PSGLLPILRLFL | 0.681 ± 0.047
65 | PSGNGAPRVHRK | 0.65 ± 0.011
66 | PSHLPRARRPPR | 0.686 ± 0.011
67 | PSHLWWDCIRKG | 0.625 ± 0.049
68 | PSHPAPGPSTRQ | 0.673 ± 0.032
69 | PSHPPLLLPLLL | 0.714 ± 0.022
70 | PSHSRSRPPPYL | 0.742 ± 0.1
71 | PSKMPNSTLRAE | 0.682 ± 0.065
72 | PSKTQKQYKTVA | 0.644 ± 0.094
73 | PSLHRPPLLPCP | 0.674 ± 0.013
74 | PSLLLPPLPLYT | 0.662 ± 0.031
75 | PSLLPPATLLPI | 0.718 ± 0.072
76 | PSLLSHAPSPRR | 0.682 ± 0.016
77 | PSLPLPSPPPFP | 0.643 ± 0.1
78 | PSLPPHPPSPLP | 0.742 ± 0.053

Row | Sequence | protein stability index
79 | PSLPPPSPSTAP | 0.713 ± 0.03
80 | PSLPRLPLCPLP | 0.704 ± 0.018
81 | PSLSPLPPRTTS | 0.732 ± 0.048
82 | PSLSYSRPPHPS | 0.681 ± 0.027
83 | PSPGPPHPPPLF | 0.713 ± 0.063
84 | PSPGPPLPPPLF | 0.7625 ± 0.0075
85 | PSPLPGYFFTLS | 0.627 ± 0.12
86 | PSPLPPPAPHPL | 0.752 ± 0.26
87 | PSPLPSPPPPPP | 0.625 ± 0.0074
88 | PSPLPTALLTNR | 0.644 ± 0.14
89 | PSPLSPEHPLPI | 0.72334 ± 0.00035
90 | PSPPLLPPPLYT | 0.658 ± 0.014
91 | PSPPPFPPIPFC | 0.708 ± 0.048
92 | PSPPPPPPTTVL | 0.718 ± 0.021
93 | PSPPPSSPPPRS | 0.686 ± 0.051
94 | PSPPRPPLPART | 0.763 ± 0.028
95 | PSPPVPPLPPVF | 0.55 ± 0.032
96 | PSPPYPPPSLPH | 0.69 ± 0.044
97 | PSPPYSRPPLPP | 0.698 ± 0.049
98 | PSPRISLSVFPC | 0.646 ± 0.062
99 | PSPRSPVPLTPS | 0.708 ± 0.015
100 | PSPRSSPPCSAS | 0.693 ± 0.039
101 | PSPSPNALALLR | 0.71439 ± 0.00045
